Experimental data: patent US12227593B2, “Site-specific conjugation of glycosylated monoclonal antibodies with transglutaminase” (Janssen Biotech, Inc., priority 2020, dated 2025)

Target: T1, MTG (Streptomyces mobaraensis, UniProt P81453)
T1 construct: purchased Activa TI or Zedira
T1 sequence (P81453 77-407): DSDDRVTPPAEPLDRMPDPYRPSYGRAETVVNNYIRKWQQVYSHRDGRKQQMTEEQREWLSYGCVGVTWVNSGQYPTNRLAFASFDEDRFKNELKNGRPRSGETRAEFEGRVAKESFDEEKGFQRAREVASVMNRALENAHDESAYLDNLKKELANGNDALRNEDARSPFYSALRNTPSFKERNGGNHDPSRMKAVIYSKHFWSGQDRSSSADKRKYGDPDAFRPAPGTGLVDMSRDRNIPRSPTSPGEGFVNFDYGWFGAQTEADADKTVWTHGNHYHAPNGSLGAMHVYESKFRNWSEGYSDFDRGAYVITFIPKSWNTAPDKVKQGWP
Assay: MTG-catalyzed conjugation of 3-APA to mAbs, degree of labeling (DOL) by LC-MS
Format: biochemical, S. mobarensis
Details: different IgG backgrounds, MTG and 3-APA at 37° C., per full mAb
Procedure: To assess the suitability of the mAb variants for MTG-catalyzed conjugation, intact mAbs (1 mg/mL) were reacted with 3-azido propylamine (3-APA; 20-100-fold molar excess) and MTG (Activa TI, 5-20% w/v or Zedira, 5-20 units/mg of mAb) in PBS buffer at 22-37° C. for 30 min to overnight. Reactions were stopped by the addition of MTG blocker (Zedira) to 100 μM and analyzed by LC-MS following deglycosylation with PNGase F and reduction with dithiothreitol. The degree of labeling (DOL) was determined by mass spectrometry.
LC-MS was performed on an Agilent 1260 HPLC system connected to an Agilent G6224 MS-TOF Mass Spectrometer. LC was run on an Agilent RP-mAb C4 column (2.1×50 mm, 3.5 micron) at a flow rate of 1 mL/min with the mobile phase 0.1% formic acid in water (A) and 0.1% formic acid in acetonitrile (Sigma-Aldrich Cat #34688) (B) and a gradient of 20% B (0-2 min), 20-60% B (2-3 min), 60-80% B (3-5.5 min). The instrument was operated in positive electro-spray ionization mode and scanned from m/z 600 to 6000. Mass to charge spectrum was deconvoluted using the Maximum Entropy algorithm and DOL was estimated using relative intensities of the deconvoluted masses corresponding to intact mAb (for intact mass) or mAb heavy chain (for reduced mass) with the addition of multiples of 83 Da (corresponding to 3-APA).
Instrument settings included: capillary voltage 3500V; fragmentor 175V; skimmer 65V; gas temperature 325C; drying gas flow 5.0 L/min; nebulizer pressure 30 psig; acquisition mode range 100-7000 with 0.42 scan rate.

Substance	DOL 18 hr
Panitumumab [Panitumumab WT]	1.2
Panitumumab WT deglycosylated: deglycosylated WT panitumumab	2.0
Pertuzumab WT deglycosylated: deglycosylated WT pertuzumab	2.0
Pertuzumab [Pertuzumab WT]	1.2
